How the values were obtained:
[1] = molecular target: T1, PbrR (Cupriavidus metallidurans CH34 (plasmid pMOL30)) (UniProt Q58AJ5); assay: DNase I footprinting; details: not given in material (gel retardation and DNase I protection as in cited refs 36 and 37)
T1 sequence: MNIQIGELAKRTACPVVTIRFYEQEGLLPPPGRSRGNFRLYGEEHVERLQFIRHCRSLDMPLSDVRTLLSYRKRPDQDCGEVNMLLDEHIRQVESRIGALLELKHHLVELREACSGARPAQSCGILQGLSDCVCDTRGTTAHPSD

[2] = molecular target: T1, PbrR (Cupriavidus metallidurans CH34 (plasmid pMOL30)); assay: EMSA; details: not given in material (gel retardation and DNase I protection as in cited refs 36 and 37)

Sequence: GCGAATGGTCACCACCGGGCATGCGGTGCGCTTGGCAAGCTCGCCGATCTGGATATTCATGGCGTCGGATGGGAGATGTCTTGACTCTATAGTAACTAGAGGGTGTTAAATCGGCAACGCGAGATGAATACACACAAGGGGTTGCCATGAGCGAATGTGGCTCGAAGGGATGTGGCTGCGCTTCCGTTGCGACGCGCAACCCAGAACCGAGCACGGTTGGCGCGGGGCTGAAGCAGGCGCGCTACCGAATCGAAAACATGGACTGTCCGACCGAAGAGGCGCTGATTCGCGACAAGC (double strand) [PpbrA 296 bp PCR product]
- binding [1]: binds
- binding [2]: binds
